These results are taken from article PMC7508794, “IRES-targeting small molecule inhibits enterovirus 71 replication via allosteric stabilization of a ternary complex”.

The target in one data set is A1-RRM1,2 (UP1) (UniProt P09651 1-196). In words: ITC; no small molecule; ITC: 10 mM K2HPO4, 20 mM KCl, 0.5 mM EDTA, 4 mM BME, pH 6.5, 25 C; lysate pull-down: 5 mM HEPES pH 7.1, 40 mM KCl, 0.1 mM EDTA, 2 mM MgCl2, 2 mM DTT, 0.25 mg/ml heparin, 30 C. To be noted: protein: recombinant; tags: C-terminal His6; hairpin with 5-nt bulge and 7-nt apical loop. In general terms: In ITC the heat of successive injections is recorded.
Chain of A1-RRM1,2 (UP1) (P09651 1-196): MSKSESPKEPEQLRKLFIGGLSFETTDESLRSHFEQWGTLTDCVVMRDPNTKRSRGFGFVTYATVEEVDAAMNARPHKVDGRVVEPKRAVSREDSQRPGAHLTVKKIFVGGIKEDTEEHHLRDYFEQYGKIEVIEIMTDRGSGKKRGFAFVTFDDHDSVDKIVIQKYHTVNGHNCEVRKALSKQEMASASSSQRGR

Data set [1] has as its target T1, AUF1-RRM1,2 (UniProt Q14103-4 70-239). Described as above. Particulars: protein: recombinant; tags: N-terminal His6, cleaved with TEV; hairpin with 5-nt bulge and 7-nt apical loop.
The target in data set [2] is T1, AUF1-RRM1,2. In words: ITC; DMA-001, RNA:DMA 1:5; ITC: 10 mM K2HPO4, 20 mM KCl, 0.5 mM EDTA, 4 mM BME, pH 6.5, 25 C; lysate pull-down: 5 mM HEPES pH 7.1, 40 mM KCl, 0.1 mM EDTA, 2 mM MgCl2, 2 mM DTT, 0.25 mg/ml heparin, 30 C. Particulars: protein: recombinant; tags: N-terminal His6, cleaved with TEV; hairpin with 5-nt bulge and 7-nt apical loop.
The target of data set [3] is T1, AUF1-RRM1,2. In words: ITC; DMA-135, RNA:DMA 1:5; ITC: 10 mM K2HPO4, 20 mM KCl, 0.5 mM EDTA, 4 mM BME, pH 6.5, 25 C; lysate pull-down: 5 mM HEPES pH 7.1, 40 mM KCl, 0.1 mM EDTA, 2 mM MgCl2, 2 mM DTT, 0.25 mg/ml heparin, 30 C. To be noted: protein: recombinant; tags: N-terminal His6, cleaved with TEV; hairpin with 5-nt bulge and 7-nt apical loop.
Data set [4] deals with T1, AUF1-RRM1,2. In words: ITC; DMA-155, RNA:DMA 1:5; ITC: 10 mM K2HPO4, 20 mM KCl, 0.5 mM EDTA, 4 mM BME, pH 6.5, 25 C; lysate pull-down: 5 mM HEPES pH 7.1, 40 mM KCl, 0.1 mM EDTA, 2 mM MgCl2, 2 mM DTT, 0.25 mg/ml heparin, 30 C. Particulars: protein: recombinant; tags: N-terminal His6, cleaved with TEV; hairpin with 5-nt bulge and 7-nt apical loop.
The target in data set [5] is T1, AUF1-RRM1,2. In words: ITC; DMA-135, RNA:DMA 1:1.6; ITC: 10 mM K2HPO4, 20 mM KCl, 0.5 mM EDTA, 4 mM BME, pH 6.5, 25 C; lysate pull-down: 5 mM HEPES pH 7.1, 40 mM KCl, 0.1 mM EDTA, 2 mM MgCl2, 2 mM DTT, 0.25 mg/ml heparin, 30 C. Particulars: protein: recombinant; tags: N-terminal His6, cleaved with TEV; hairpin with 5-nt bulge and 7-nt apical loop.
For data set [6], the target named is T1, AUF1-RRM1,2. Briefly: ITC; DMA-135, RNA:DMA 1:3.3; ITC: 10 mM K2HPO4, 20 mM KCl, 0.5 mM EDTA, 4 mM BME, pH 6.5, 25 C; lysate pull-down: 5 mM HEPES pH 7.1, 40 mM KCl, 0.1 mM EDTA, 2 mM MgCl2, 2 mM DTT, 0.25 mg/ml heparin, 30 C. To be noted: protein: recombinant; tags: N-terminal His6, cleaved with TEV; hairpin with 5-nt bulge and 7-nt apical loop.

T1 sequence (Q14103 other isoform, or with tags, fused parts or gaps): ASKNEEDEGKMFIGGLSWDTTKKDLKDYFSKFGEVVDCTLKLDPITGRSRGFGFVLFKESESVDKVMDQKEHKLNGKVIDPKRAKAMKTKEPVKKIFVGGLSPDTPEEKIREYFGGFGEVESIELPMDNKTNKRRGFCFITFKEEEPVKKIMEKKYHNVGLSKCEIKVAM

For the molecule GGAUCAAUAGCAGGUGUGGCACACCAGUCAUACCUUGAUCC (structured_RNA) [EV71 SLII (SLII2231)], in the data set with A1-RRM1,2 (UP1), the binding result is “binds”. Also, the Kd in the data set with AUF1-RRM1,2 [1] worked out at 336 ± 44 nM; in the data set with AUF1-RRM1,2 [2] it was 306 ± 4 nM; in the data set with AUF1-RRM1,2 [3], 134 ± 7 nM; in the data set with AUF1-RRM1,2 [4], 390 ± 7 nM; with AUF1-RRM1,2 [5], 240 ± 72 nM; in the data set with AUF1-RRM1,2 [6], 140 ± 2 nM.

The term Kd denotes the constant that tells how readily two partners part at equilibrium.
